Measured values from US11834553B2, “Alkoxylation methods” (priority 2009, dated 2023).

How the values were obtained:
[1] = Stress stability studies of 4-arm-PEG-Gly-Irino-20K (Example 3); type: physicochemical; settings: summary of stress stability studies
Experimental: The product formed in Example 1, 4-arm-PEG-Gly-Irino-20K, compound 5, (approximately 1-2 g) was weighed into PEG PE ‘whirl top’ bags and placed into another ‘whirl top’ bag in order to simulate the API packaging conditions. In one study (results shown in FIG. 1), samples were placed in an environmental chamber at 25° C./60% RH for 4 weeks. In another study, samples were placed in an environmental chamber at 40° C./75% RH for up to several months (results shown in FIG. 2 and FIG. 3). Samples were taken and analyzed on a periodic basis over the course of the studies.

[2] = K2CO3 in CH3OH, 20° C., after 45 minutes
Experimental: (§1) Experiments were performed to determine the fate of the irinotecan-containing PEG species in 4-arm-PEG-Gly-Irino-20K under transesterification (K2CO3 in CH3OH, 20° C.) and aqueous hydrolysis (pH 10, 20° C.) conditions.

[3] = pH 10, 20° C., within 24 hours
Experimental: as §1

pentaerythritolyl-4-arm-(PEG-1-methylene-2-oxo-vinylamino acetate linked-irinotecan) [4-arm-PEG-Gly-Irino-20K]
overall stability compared with free base and hydrochloride salt [1]: greater stability than either the free base or hydrochloride salt | transesterification reaction, completion [2]: > 99% | aqueous hydrolysis reaction, completion [3]: > 99%
